Here are results for two substances from patent publication US20260055186A1.

In the assay the target is human CD8 on human T cells (human) (UniProt P01732). In words: cell-based or functional assay.
human CD8 on human T cells (human), sequence (P01732 22-235): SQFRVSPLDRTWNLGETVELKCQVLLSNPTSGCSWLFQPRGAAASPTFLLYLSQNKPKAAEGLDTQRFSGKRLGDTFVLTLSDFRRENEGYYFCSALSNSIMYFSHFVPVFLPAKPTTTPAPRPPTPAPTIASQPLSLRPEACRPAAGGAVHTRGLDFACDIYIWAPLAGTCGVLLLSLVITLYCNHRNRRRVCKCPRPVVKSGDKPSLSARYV

As to 51.1 (antibody), the tumor cell survival, SK-MEL-5 with MART-1 T cells was determined as 2 fold.

Substance SK1 (antibody) had a tumor cell survival, SK-MEL-5 with MART-1 T cells of 2 fold.
